The record followed here is FireProtDB (doi:10.1126/science.aai7825).

For this series the following is noted: Escherichia coli (strain K12); pH 7.5; Thermal; Intensity; HEPES 20mM; transition: 2; whole UniProt chain shown.

B1: dTDP-glucose 4,6-dehydratase 2 wild type, P27830 (protein)
chain: MRKILITGGAGFIGSALVRYIINETSDAVVVVDKLTYAGNLMSLAPVAQSERFAFEKVDICDRAELARVFTEHQPDCVMHLAAESHVDRSIDGPAAFIETNIVGTYTLLEAARAYWNALTEDKKSAFRFHHISTDEVYGDLHSTDDFFTETTPYAPSSPYSASKASSDHLVRAWLRTYGLPTLITNCSNNYGPYHFPEKLIPLMILNALAGKSLPVYGNGQQIRDWLYVEDHARALYCVATTGKVGETYNIGGHNERKNLDVVETICELLEELAPNKPHGVAHYRDLITFVADRPGHDLRYAIDASKIARELGWLPQETFESGMRKTVQWYLANESWWKQVQDGSYQGERLGLKG
For B1, the Tm came to 42.3 °C.

B2: Glutathione S-transferase YfcF wild type, P77544 (protein)
chain: MSKPAITLWSDAHFFSPYVLSAWVALQEKGLSFHIKTIDLDSGEHLQPTWQGYGQTRRVPLLQIDDFELSESSAIAEYLEDRFAPPTWERIYPLDLENRARARQIQAWLRSDLMPIREERPTDVVFAGAKKAPLTAEGKASAEKLFAMAEHLLVLGQPNLFGEWCIADTDLALMINRLVLHGDEVPERLVDYATFQWQRASVQRFIALSAKQSG
Turning to B2, the Tm was 41.6 °C.

B3: Probable L,D-transpeptidase YnhG wild type, P76193 (protein)
chain: MKRASLLTLTLIGAFSAIQAAWAVDYPLPPTGSRLVGQNQTYTVQEGDKNLQAIARRFDTAAMLILEANNTIAPVPKPGTTITIPSQLLLPDAPRQGIIVNLAELRLYYYPPGENIVQVYPIGIGLQGLETPVMETRVGQKIPNPTWTPTAGIRQRSLERGIKLPPVVPAGPNNPLGRYALRLAHGNGEYLIHGTSAPDSVGLRVSSGCIRMNAPDIKALFSSVRTGTPVKVINEPVKYSVEPNGMRYVEVHRPLSAEEQQNVQTMPYTLPAGFTQFKDNKAVDQKLVDKALYRRAGYPVSVSSGATPAASNAPSVESAQNGEPEQGNMLRVTQ
Consider B3, for which the Tm was 44.1 °C.

B4: Uncharacterized Nudix hydrolase YfcD wild type, P65556 (protein)
chain: MEQRRLASTEWVDIVNEENEVIAQASREQMRAQCLRHRATYIVVHDGMGKILVQRRTETKDFLPGMLDATAGGVVQADEQLLESARREAEEELGIAGVPFAEHGQFYFEDKNCRVWGALFSCVSHGPFALQEDEVSEVCWLTPEEITARCDEFTPDSLKALALWMKRNAKNEAVETETAE
In the case of B4, the Tm worked out at 42.1 °C.

B5: Phospho-2-dehydro-3-deoxyheptonate aldolase, Phe-sensitive wild type, P0AB91 (protein)
chain: MNYQNDDLRIKEIKELLPPVALLEKFPATENAANTVAHARKAIHKILKGNDDRLLVVIGPCSIHDPVAAKEYATRLLALREELKDELEIVMRVYFEKPRTTVGWKGLINDPHMDNSFQINDGLRIARKLLLDINDSGLPAAGEFLDMITPQYLADLMSWGAIGARTTESQVHRELASGLSCPVGFKNGTDGTIKVAIDAINAAGAPHCFLSVTKWGHSAIVNTSGNGDCHIILRGGKEPNYSAKHVAEVKEGLNKAGLPAQVMIDFSHANSSKQFKKQMDVCADVCQQIAGGEKAIIGVMVESHLVEGNQSLESGEPLAYGKSITDACIGWEDTDALLRQLANAVKARRG
Consider B5, for which the Tm came to 41.7 °C.

B6: Selenide, water dikinase wild type, P16456 (protein)
chain: MSENSIRLTQYSHGAGCGCKISPKVLETILHSEQAKFVDPNLLVGNETRDDAAVYDLGNGTSVISTTDFFMPIVDNPFDFGRIAATNAISDIFAMGGKPIMAIAILGWPINKLSPEIAREVTEGGRYACRQAGIALAGGHSIDAPEPIFGLAVTGIVPTERVKKNSTAQAGCKLFLTKPLGIGVLTTAEKKSLLKPEHQGLATEVMCRMNIAGASFANIEGVKAMTDVTGFGLLGHLSEMCQGAGVQARVDYEAIPKLPGVEEYIKLGAVPGGTERNFASYGHLMGEMPREVRDLLCDPQTSGGLLLAVMPEAENEVKATAAEFGIELTAIGELVPARGGRAMVEIR
Turning to B6, the Tm worked out at 41.7 °C.

B7: Fructose-1,6-bisphosphatase class 1 wild type, P0A993 (protein)
chain: MKTLGEFIVEKQHEFSHATGELTALLSAIKLGAKIIHRDINKAGLVDILGASGAENVQGEVQQKLDLFANEKLKAALKARDIVAGIASEEEDEIVVFEGCEHAKYVVLMDPLDGSSNIDVNVSVGTIFSIYRRVTPVGTPVTEEDFLQPGNKQVAAGYVVYGSSTMLVYTTGCGVHAFTYDPSLGVFCLCQERMRFPEKGKTYSINEGNYIKFPNGVKKYIKFCQEEDKSTNRPYTSRYIGSLVADFHRNLLKGGIYLYPSTASHPDGKLRLLYECNPMAFLAEQAGGKASDGKERILDIIPETLHQRRSFFVGNDHMVEDVERFIREFPDA
On to B7, for which the Tm worked out at 42.4 °C.

B8: Outer membrane porin C wild type, P06996 (protein)
chain: MKVKVLSLLVPALLVAGAANAAEVYNKDGNKLDLYGKVDGLHYFSDNKDVDGDQTYMRLGFKGETQVTDQLTGYGQWEYQIQGNSAENENNSWTRVAFAGLKFQDVGSFDYGRNYGVVYDVTSWTDVLPEFGGDTYGSDNFMQQRGNGFATYRNTDFFGLVDGLNFAVQYQGKNGNPSGEGFTSGVTNNGRDALRQNGDGVGGSITYDYEGFGIGGAISSSKRTDAQNTAAYIGNGDRAETYTGGLKYDANNIYLAAQYTQTYNATRVGSLGWANKAQNFEAVAQYQFDFGLRPSLAYLQSKGKNLGRGYDDEDILKYVDVGATYYFNKNMSTYVDYKINLLDDNQFTRDAGINTDNIVALGLVYQF
Take B8: the Tm was 43.5 °C.

B9: Ribosome-binding ATPase YchF wild type, P0ABU2 (protein)
chain: MGFKCGIVGLPNVGKSTLFNALTKAGIEAANFPFCTIEPNTGVVPMPDPRLDQLAEIVKPQRTLPTTMEFVDIAGLVKGASKGEGLGNQFLTNIRETEAIGHVVRCFENDNIIHVSGKVNPADDIEVINTELALADLDTCERAIHRVQKKAKGGDKDAKAELAVLEKCLPQLENAGMLRALDLSAEEKAAIRYLSFLTLKPTMYIANVNEDGFENNPYLDQVREIAAKEGSVVVPVCAAVEADIAELDDEERDEFMQELGLEEPGLNRVIRAGYKLLNLQTYFTAGVKEVRAWTIPVGATAPQAAGKIHTDFEKGFIRAQTISFEDFITYKGEQGAKEAGKMRAEGKDYIVKDGDVMNFLFNV
For the protein B9, the Tm worked out at 41.3 °C.

B10: Elongation factor P-like protein wild type, P0A6N8 (protein)
chain: MPRANEIKKGMVLNYNGKLLLVKDIDIQSPTARGAATLYKMRFSDVRTGLKVEERFKGDDIVDTVTLTRRYVDFSYVDGNEYVFMDKEDYTPYTFTKDQIEEELLFMPEGGMPDMQVLTWDGQLLALELPQTVDLEIVETAPGIKGASASARNKPATLSTGLVIQVPEYLSPGEKIRIHIEERRYMGRAD
As to B10, the Tm came to 43.5 °C.

B11: Nucleoid-associated protein YejK wild type, P33920 (protein)
chain: MSLDINQIALHQLIKRDEQNLELVLRDSLLEPTETVVEMVAELHRVYSAKNKAYGLFSEESELAQTLRLQRQGEEDFLAFSRAATGRLRDELAKYPFADGGFVLFCHYRYLAVEYLLVAVLSNLSSMRVNENLDINPTHYLDINHADIVARIDLTEWETNPESTRYLTFLKGRVGRKVADFFMDFLGASEGLNAKAQNRGLLQAVDDFTAEAQLDKAERQNVRQQVYSYCNEQLQAGEEIELKSLSKELAGVSEVSFTEFAAEKGYELEESFPADRSTLRQLTKFAGSGGGLTINFDAMLLGERIFWDPATDTLTIKGTPPNLRDQLQRRTSGGN
As for B11, the Tm is 42.6 °C.

B12: FKBP-type peptidyl-prolyl cis-trans isomerase FkpA wild type, P45523 (protein)
chain: MKSLFKVTLLATTMAVALHAPITFAAEAAKPATAADSKAAFKNDDQKSAYALGASLGRYMENSLKEQEKLGIKLDKDQLIAGVQDAFADKSKLSDQEIEQTLQAFEARVKSSAQAKMEKDAADNEAKGKEYREKFAKEKGVKTSSTGLVYQVVEAGKGEAPKDSDTVVVNYKGTLIDGKEFDNSYTRGEPLSFRLDGVIPGWTEGLKNIKKGGKIKLVIPPELAYGKAGVPGIPPNSTLVFDVELLDVKPAPKADAKPEADAKAADSAKK
As for B12, the Tm is 41.8 °C.

B13: Probable ketoamine kinase YniA wild type, P77739 (protein)
chain: MWQAISRLLSEQLGEGEIELRNELPGGEVHAAWHLRYAGHDFFVKCDERELLPGFTAEADQLELLSRSKTVTVPKVWAVGADRDYSFLVMDYLPPRPLDAHSAFILGQQIARLHQWSDQPQFGLDFDNALSTTPQPNTWQRRWSTFFAEQRIGWQLELAAEKGIAFGNIDAIVEHIQQRLASHQPQPSLLHGDLWSGNCALGPDGPYIFDPACYWGDRECDLAMLPLHTEQPPQIYDGYQSVSPLPADFLERQPVYQLYTLLNRARLFGGQHLVIAQQSLDRLLAA
As for B13, the Tm was 40.4 °C.

B14: Exodeoxyribonuclease III wild type, P09030 (protein)
chain: MKFVSFNINGLRARPHQLEAIVEKHQPDVIGLQETKVHDDMFPLEEVAKLGYNVFYHGQKGHYGVALLTKETPIAVRRGFPGDDEEAQRRIIMAEIPSLLGNVTVINGYFPQGESRDHPIKFPAKAQFYQNLQNYLETELKRDNPVLIMGDMNISPTDLDIGIGEENRKRWLRTGKCSFLPEEREWMDRLMSWGLVDTFRHANPQTADRFSWFDYRSKGFDDNRGLRIDLLLASQPLAECCVETGIDYEIRSMEKPSDHAPVWATFRR
Turning to B14, the Tm stood at 42.6 °C.

B15: Imidazole glycerol phosphate synthase subunit HisH wild type, P60595 (protein)
chain: MNVVILDTGCANLNSVKSAIARHGYEPKVSRDPDVVLLADKLFLPGVGTAQAAMDQVRERELFDLIKACTQPVLGICLGMQLLGRRSEESNGVDLLGIIDEDVPKMTDFGLPLPHMGWNRVYPQAGNRLFQGIEDGAYFYFVHSYAMPVNPWTIAQCNYGEPFTAAVQKDNFYGVQFHPERSGAAGAKLLKNFLEM
In the case of B15, the Tm worked out at 42.4 °C.

B16: 5-amino-6-(5-phospho-D-ribitylamino)uracil phosphatase YbjI wild type, P75809 (protein)
chain: MSIKLIAVDMDGTFLSDQKTYNRERFMAQYQQMKAQGIRFVVASGNQYYQLISFFPEIANEIAFVAENGGWVVSEGKDVFNGELSKDAFATVVEHLLTRPEVEIIACGKNSAYTLKKYDDAMKTVAEMYYHRLEYVDNFDNLEDIFFKFGLNLSDELIPQVQKALHEAIGDIMVSVHTGNGSIDLIIPGVHKANGLRQLQKLWGIDDSEVVVFGDGGNDIEMLRQAGFSFAMENAGSAVVAAAKYRAGSNNREGVLDVIDKVLKHEAPFDQ
On to B16, for which the Tm was 41.2 °C.
